According to publication PMC10630519, “Structural insights into the modulation of coronavirus spike tilting and infectivity by hinge glycans” (Nature Communications, 2023):

Biological target: the molecule itself
Assay: cryo-EM structure; cryoET and subtomogram averaging of spikes on vitrified, chemically unfixed HCoV-NL63 virions in NTE buffer (20 mM Tris pH 8.0, 120 mM NaCl, 1 mM EDTA); 18,356 spike subvolumes; C3 symmetry imposed; focused classification of RBD and domain 0

B1: human coronavirus NL63 (HCoV-NL63) spike glycoprotein (S) (natural protein)
chain: CNSNANLSMLQLGVPDNSSTIVTGLLPTHWFCANQSTSVYSANGFFYIDVGNHRSAFALHTGYYDANQYYIYVTNEIGLNASVTLKICKFSRNTTFDFLSNASSSFDCIVNLLFTEQLGAPLGITISGETVRLHLYNVTRTFYVPAAYKLTKLSVKCYFNYSCVFSVVNATVTVNVTTHNGRVVNYTVCDDCNGYTDNIFSVQQDGRIPNGFPFNNWFLLTNGSTLVDGVSRLYQPLRLTCLWPVPGLKSSTGFVYFNATGSDVNCNGYQHNSVVDVMRYNLNFSANSLDNLKSGVIVFKTLQYDVLFYCSNSSSGVLDTTIPFGPSSQPYYCFINSTINTTHVSTFVGILPPTVREIVVARTGQFYINGFKYFDLGFIEAVNFNVTTASATDFWTVAFATFVDVLVNVSATNIQNLLYCDSPFEKLQCEHLQFGLQDGFYSANFLDDNVLPETYVALPIYYQHTDINFTATASFGGSCYVCKPHQVNISLNGNTSVCVRTSHFSIRYIYNRVKSGSPGDSSWHIYLKSGTCPFSFSKLNNFQKFKTICFSTVEVPGSCNFPLEATWHYTSYTIVGALYVTWSEGNSITGVPYPVSGIREFSNLVLNNCTKYNIYDYVGTGIIRSSNQSLAGGITYVSNSGNLLGFKNVSTGNIFIVTPCNQPDQVAVYQQSIIGAMTAVNESRYGLQNLLQLPNFYYVSNGGNNCTTAVMTYSNFGICADGSLIPVRPRNSSDNGISAIITANLSIPSNWTTSVQVEYLQITSTPIVVDCATYVCNGNPRCKNLLKQYTSACKTIEDALRLSAHLETNDVSSMLTFDSNAFSLANVTSFGDYNLSSVLPQRNIRSSRIAGRSALEDLLFSKVVTSGLGTVDVDYKSCTKGLSIADLACAQYYNGIMVLPGVADAERMAMYTGSLIGGMVLGGLTSAAAIPFSLALQARLNYVALQTDVLQENQKILAASFNKAINNIVASFSSVNDAITQTAEAIHTVTIALNKIQDVVNQQGSALNHLTSQLRHNFQAISNSIQAIYDRLDSIQADQQVDRLITGRLAALNAFVSQVLNKYTEVRGSRRLAQQKINECVKSQSNRYGFCGNGTHIFSIVNSAPDGLLFLHTVLLPTDYKNVKAWSGICVDGIYGYVLRQPNLVLYSDNGVFRVTSRVMFQPRLPVLSDFVQIYNCNVTFVNISRVELHTVIPDYVDVNKTLQEFAQNLPKYVKPNFDLTPFNLTYLNLSSELKQLEAKTASLFQTTVELQGLIDQINSTYVDLKLLNRFENYIKWPWWVWLIISVVFVVLLSLLVFCCLSTGCCGCCNCLTSSMRGCCDCGSTKLPYYEFEKVHVQ
modifications: N-linked glycans at 39 N-glycosylation sites (among them N240, N354, N358, N426, N486, N506, N512, N749, N844, N852, N1111, N1196, N1201, N1218, N1242, N1247, N1277)
notes: Spike glycoprotein S of human coronavirus NL63 (virus from BEI Resources NR-470), full-length S in the viral envelope; not cleaved at S1/S2 (single band of about 250 kD); Native membrane-anchored trimer on virions; The model covers the crown, residues 1-1224; the stalk (1216-1297) is only a predicted model; also called S trimer; S protomer; source: no chemical fixation
stoichiometry N: 3
